Source: article PMC4424056 (Nature structural & molecular biology, 2015)

B1: integrin β3 cytoplasmic tail (β3 CT, K716-T762) (domain or fragment, human, UniProt P05106 742-788, looked up)
chain: KLLITIHDRKEFAKFEEERARAKWDTANNPLYKEATSTFTNITYRGT
B2: β3-CT L717K-L718K mutant (domain or fragment, human, UniProt P05106 742-788, looked up)
chain: KKKITIHDRKEFAKFEEERARAKWDTANNPLYKEATSTFTNITYRGT
B3: integrin αIIb cytoplasmic tail (αIIb CT, W988-E1008) (peptide, UniProt P08514 1019-1039, looked up)
chain: WKVGFFKRNRPPLEEDDEEGE

What was measured:
[1] = target: T1, filamin A immunoglobulin repeat 21 (FLNa-Ig21) (human, UniProt P21333 2236-2330); test: NMR titration
T1 sequence: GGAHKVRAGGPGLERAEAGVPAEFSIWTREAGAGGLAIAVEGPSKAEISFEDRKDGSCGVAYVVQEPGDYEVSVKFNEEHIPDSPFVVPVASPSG

FLNa-Ig21 E2276A = target: T2, FLNa-Ig21 E2276A (human, UniProt P21333 2236-2330, E2276A); test: NMR titration
T2 sequence: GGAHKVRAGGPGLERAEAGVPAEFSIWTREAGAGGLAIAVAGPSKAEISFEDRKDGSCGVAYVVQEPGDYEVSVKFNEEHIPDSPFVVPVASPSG

[2] = target: T1, filamin A immunoglobulin repeat 21 …; test: SPR
β3-CT L717K-L718K mutant = target: B2; test: NMR structure
[3] = target: T3, FLNa-Ig21 pre-saturated β3-CT (human, UniProt P21333 2236-2330; P05106 742-788); test: SPR
T3 sequence 1: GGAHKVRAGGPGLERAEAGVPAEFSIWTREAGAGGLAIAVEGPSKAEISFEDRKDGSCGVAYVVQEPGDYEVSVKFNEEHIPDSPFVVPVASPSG
T3 sequence 2: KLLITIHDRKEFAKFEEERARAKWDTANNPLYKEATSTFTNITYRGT

[4] = target: B1
FLNa-Ig21 A2268K = target: T4, FLNa-Ig21 A2268K (human, UniProt P21333 2236-2330, A2268K); test: NMR titration
T4 sequence: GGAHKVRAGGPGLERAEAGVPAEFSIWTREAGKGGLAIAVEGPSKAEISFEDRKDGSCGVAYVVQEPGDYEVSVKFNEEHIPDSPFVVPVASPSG

[5] = target: T5, GST-FLNa-Ig21-β3 CT chimera (human, UniProt P05106 742-788; P21333 2236-2330); test: pull-down
T5 chain: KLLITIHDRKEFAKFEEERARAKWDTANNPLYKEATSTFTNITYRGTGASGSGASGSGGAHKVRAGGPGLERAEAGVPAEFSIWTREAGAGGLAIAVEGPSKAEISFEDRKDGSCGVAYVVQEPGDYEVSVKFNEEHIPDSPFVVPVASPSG

[6] = target: B1; test: NMR titration
[7] = target: B3; test: SPR
[8] = target: T6, β3 transmembrane-cytoplasmic domain (β3 TMCD, K689-T762) (human, UniProt P05106 715-788); test: NMR titration
T6 sequence (looked up): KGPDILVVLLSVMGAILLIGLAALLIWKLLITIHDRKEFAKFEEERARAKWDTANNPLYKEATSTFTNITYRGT

Binder: B1
- binding result [1]: binds
- binding result (FLNa-Ig21 E2276A): binds

Binder: KLLITIHDRKEFAKFEEERARAKW (peptide, UniProt P05106 742-765, looked up) [integrin β3 membrane-proximal fragment β3-N (K716-W739)]
- Kd [2]: ~223 µM

Binder: B2
- binding result [1]: binds

Binder: B3
- binding result (β3-CT L717K-L718K mutant): binds
- binding result [3]: binds
- Kd [4]: ~368 µM
- binding result (FLNa-Ig21 A2268K): binds
- binding result [5]: binds

Binder: WKVGFFERNEPPLEEDDEEGE (peptide, UniProt P08514 1019-1039, looked up) [αIIb CT K994E-R997E mutant]
- binding result [6]: binds

B4: FLNa-Ig21-β3-CT chimera (other, human)
chain: KLLITIHDRKEFAKFEEERARAKWDTANNPLYKEATSTFTNITYRGTGASGSGASGSGGAHKVRAGGPGLERAEAGVPAEFSIWTREAGAGGLAIAVEGPSKAEISFEDRKDGSCGVAYVVQEPGDYEVSVKFNEEHIPDSPFVVPVASPSG
- Kd [7]: ~19 µM

B5: αIIb transmembrane-cytoplasmic domain (αIIb TMCD, E960-E1008) (domain or fragment)
chain: not shown
- binding result [8]: binds
